Test results published in patent US20200283532A1 (CANCER RESEARCH TECHNOLOGY, published 2020).

Assays:
Test in all cases: flow cytometry, A375Ppuro cells
[1] = biological target: Peptide (22) DTPA-NK(Biotin)…-OH
[2] = biological target: Peptide (23) DTPA-GNK(Biotin)…-OH
[3] = biological target: Peptide (18) AcHN-NK(Biotin)…-NH2
[4] = biological target: Peptide (24) DTPA-NK(Biotin)…-NH2
[5] = biological target: Peptide (25) DTPA-nK(Biotin)…-OH
[6] = biological target: Peptide (16) AcHN-NK(Biotin)…-OH
[7] = biological target: Peptide (26) DTPA-nK(Biotin)…t-OH

Measured: binding result

B1: integrin αvβ5 (receptor)
chain 1: FNLDVDSPAEYSGPEGSYFGFAVDFFVPSASSRMFLLVGAPKANTTQPGIVEGGQVLKCDWSSTRRCQPIEFDATGNRDYAKDDPLEFKSHQWFGASVRSKQDKILACAPLYHWRTEMKQEREPVGTCFLQDGTKTVEYAPCRSQDIDADGQGFCQGGFSIDFTKADRVLLGGPGSFYWQGQLISDQVAEIVSKYDPNVYSIKYNNQLATRTAQAIFDDSYLGYSVAVGDFNGDGIDDFVSGVPRAARTLGMVYIYDGKNMSSLYNFTGEQMAAYFGFSVAATDINGDDYADVFIGAPLFMDRGSDGKLQEVGQVSVSLQRASGDFQTTKLNGFEVFARFGSAIAPLGDLDQDGFNDIAIAAPYGGEDKKGIVYIFNGRSTGLNAVPSQILEGQWAARSMPPSFGYSMKGATDIDKNGYPDLIVGAFGVDRAILYRARPVITVNAGLEVYPSILNQDNKTCSLPGTALKVSCFNVRFCLKADGKGVLPRKLNFQVELLLDKLKQKGAIRRALFLYSRSPSHSKNMTISRGGLMQCEELIAYLRDESEFRDKLTPITIFMEYRLDYRTAADTTGLQPILNQFTPANISRQAHILLDCGEDNVCKPKLEVSVDSDQKKIYIGDDNPLTLIVKAQNQGEGAYEAELIVSIPLQADFIGVVRNNEALARLSCAFKTENQTRQVVCDLGNPMKAGTQLLAGLRFSVHQQSEMDTSVKFDLQIQSSNLFDKVSPVVSHKVDLAVLAAVEIRGVSSPDHVFLPIPNWEHKENPETEEDVGPVVQHIYELRNNGPSSFSKAMLHLQWPYKYNNNTLLYILHYDIDGPMNCTSDMEINPLRIKISSLQTTEKNDTVAGQGERDHLITKRDLALSEGDIHTLGCGVAQCLKIVCQVGRLDRGKSAILYVKSLLWTETFMNKENQNHSYSLKSSASFNVIEFPYKNLPIEDITNSTLVTTNVTWGIQPAPMPVPVWVIILAVLAGLLLLAVLVFVMYRMGFFKRVRPPQEEQEREQLQPHENGEGNSET
chain 2: GLNICTSGSATSCEECLLIHPKCAWCSKEDFGSPRSITSRCDLRANLVKNGCGGEIESPASSFHVLRSLPLSSKGSGSAGWDVIQMTPQEIAVNLRPGDKTTFQLQVRQVEDYPVDLYYLMDLSLSMKDDLDNIRSLGTKLAEEMRKLTSNFRLGFGSFVDKDISPFSYTAPRYQTNPCIGYKLFPNCVPSFGFRHLLPLTDRVDSFNEEVRKQRVSRNRDAPEGGFDAVLQAAVCKEKIGWRKDALHLLVFTTDDVPHIALDGKLGGLVQPHDGQCHLNEANEYTASNQMDYPSLALLGEKLAENNINLIFAVTKNHYMLYKNFTALIPGTTVEILDGDSKNIIQLIINAYNSIRSKVELSVWDQPEDLNLFFTATCQDGVSYPGQRKCEGLKIGDTASFEVSLEARSCPSRHTEHVFALRPVGFRDSLEVGVTYNCTCGCSVGLEPNSARCNGSGTYVCGLCECSPGYLGTRCECQDGENQSVYQNLCREAEGKPLCSGRGDCSCNQCSCFESEFGKIYGPFCECDNFSCARNKGVLCSGHGECHCGECKCHAGYIGDNCNCSTDISTCRGRDGQICSERGHCLCGQCQCTEPGAFGEMCEKCPTCPDACSTKRDCVECLLLHSGKPDNQTCHSLCRDEVITWVDTIVKDDQEAVLCFYKTAKDCVMMFTYVELPSGKSNLTVLREPECGNTPNAMTILLAVVGSILLVGLALLAIWKLLVTIHDRREFAKFQSERSRARYEMASNPLYRKPISTHTVDFTFNKFNKSYNGTVD
notes: whole, on cells
no binding (tested: 1000 nM): all assays above

B2: integrin αvβ8 (receptor)
chain 1: B1 chain 1
chain 2: EDNRCASSNAASCARCLALGPECGWCVQEDFISGGSRSERCDIVSNLISKGCSVDSIEYPSVHVIIPTENEINTQVTPGEVSIQLRPGAEANFMLKVHPLKKYPVDLYYLVDVSASMHNNIEKLNSVGNDLSRKMAFFSRDFRLGFGSYVDKTVSPYISIHPERIHNQCSDYNLDCMPPHGYIHVLSLTENITEFEKAVHRQKISGNIDTPEGGFDAMLQAAVCESHIGWRKEAKRLLLVMTDQTSHLALDSKLAGIVVPNDGNCHLKNNVYVKSTTMEHPSLGQLSEKLIDNNINVIFAVQGKQFHWYKDLLPLLPGTIAGEIESKAANLNNLVVEAYQKLISEVKVQVENQVQGIYFNITAICPDGSRKPGMEGCRNVTSNDEVLFNVTVTMKKCDVTGGKNYAIIKPIGFNETAKIHIHRNCSCQCEDNRGPKGKCVDETFLDSKCFQCDENKCHFDEDQFSSESCKSHKDQPVCSGRGVCVCGKCSCHKIKLGKVYGKYCEKDDFSCPYHHGNLCAGHGECEAGRCQCFSGWEGDRCQCPSAAAQHCVNSKGQVCSGRGTCVCGRCECTDPRSIGRFCEHCPTCYTACKENWNCMQCLHPHNLSQAILDQCKTSCALMEQQHYVDQTSECFSSPSYLRIFFIIFIVTFLIGLLKVLIIRQVILQWNSNKIKSSSDYRVSASKKDKLILQSVCTRAVTYRREKPEEIKMDISKLNAHETFRCNF
notes: whole, on cells
no binding (tested: 1000 nM): all assays above
